# Measured values as given in the DeepSol protein solubility set.
# Test: soluble on expression in E. coli; label from the status in PepcDB or PDB records
row,Sequence,soluble on expression in E. coli
1,MSLVGYSAVSQPSPASFLLGPTLPPAPSIAFRLWRPYSMTARITSVEALPYRLPLTSKLAWGAHSALSAAEHVLVRVTLSDGSVGVAEATPRPTIYGETPGSVTAILQHLEPALLGLDIADEAALNRVRGSVAGNHTARGALDMALWEARAASRGQSLFDTLLGPHERVRVSFILGIAPPAEMLAEAERVVAAGVRCLKVKVGRHAAQDLQVIAELRRRYGDDVQLYADSNETLTLEQAPDVLAAMREAGLMYVEEPLPARDLRARAALHAAGVLPIVADDSCFTPADLERELDFDTFDVLNVKTARNGFTDGLQMLRRAAEHGKRGMVGSQASTGLGTLHAALLSTQAEVTEPCELSFVLKLGDDLLNRPIEFQDGWLNVPELREHRLDEDKLARYRIEGHHHHHH,not soluble
2,MGSDKIHHHHHHMQQSKEERVHDVFEKISDKYDVMNSVISFQRHKAWRKETMRIMDVKPGSKALDVCCGTADWTIALAEAVGEQGKVVGLDFSENMLSVGKQKVEALQLKQVELLHGNAMELPFEDNTFDYVTIGFGLRNVPDYMHVLKEMTRVVKPGGKVICLETSQPTMIGFRQGYILYFKYIMPLFGKLFAKSYKEYSWLQESASTFPGMKELANMFEKAGLERVQVKPFTFGVAAMHLGMKPESK,not soluble
3,MLGSPVAGAQVRVWQLDLDGQRKGREPLREAVTDDRGRFRIEMGAAHGNLLVESAGGETRELWSEEPLGLDPDVPLEAIIPLYIPVQHREIVVSPFTSVAAALVERRPVEPGRFHEAMQGVHALLGGHLGGIDILDAPVTPIDEPATQLTPGVRHGLLLGALSMLAGRMAEETGASVRGLNTMMLTAALREDARDESGLLDGVGPEGAIALGFCVDPPSGADTPLCRLSAQTLRQDLAETLAFHLLGSAQDGTGLSFGDGVVLANEVAQGTETALFGNVQPGNVGDERAPVITPLASPYYEESEDAIAFEDDLTPVHVRSEAARIDLSEVFENDCDREIHKHVDVLGAGDANPLRWRFAVKDDLAGFDVEDLLVQLRVPGVLAARPLAVTSVELPEGETAPGRVFEVFARERDAEELARVEGRYNIEIAATDRLGNTSPVLRGCWRHVPRAAPLWAGSFNAASGPGSFDERRLESNNLAPVLRGDQAPVLARLEVQNNTDEDVFLTLRADDIVGRYSATWTRSRVLLSEEEGMSDCLETGECFSAPPPDVVDEIIGLQPIPDSLVTLRVFDLATGVTPKCPNCRPNEVQIAAGGHFEVQAVVSNLAFLVPPSVNRTQIQEIQVGPIGAQVQLTGVDRRGYVHCEDTVPGSSLCRVRLSYQLFHALARATLQVDSLTISAVSSPLSTLAPRSPQPPLEGDNFTFSLPVSTAVTWTTEDASIPVSQ,not soluble
4,MTEVRRRGRPGQAEPVAQKGAQALERGIAILQYLEKSGGSSSVSDISLNLDLPLSTTFRLLKVLQAADFVYQDSQLGWWHIGLGVFNVGAAYIHNRDVLSVAGPFMRRLMLLSGETVNVAIRNGNEAVLIGQLECKSMVRMCAPLGSRLPLHASGAGKALLYPLAEEELMSIILQTGLQQFTPTTLVDMPTLLKDLEQARELGYTVDKEEHVVGLNCIASAIYDDVGSVVAAISISGPSSRLTEDRFVSQGELVRDTARDISTALGLKAHP,soluble
5,MSLAEKLPFRVKKHQSKLLKKLGETDMQLQYNKVDNLKIVVSKINGMIIHPGETFSFCKTVGLPTRKKGYKEGMELSFGKPRAGVGGGICQSTNLLHWLALHSPLTITERHHHSIDPFPDNGRVLPWASGAAVFYNYIDFQLTNDTSWAFQINLWLTDKLLEGEIRVNEELDFAYHVKERNHRFIKKEGAYFRTNEIWRHKIAKFRSGALLEEELMYKNYGKVMYVPKTYQEGHHHHHH,soluble
6,MGSDKIHHHHHHVLNFDYDLQSVQETRNLARQAKQAQTELAQFNSEQIDKIIRNMVKVAEENAVALAKLAVEETGFGKVEDKVFKNRFASTELYQFIKPMQTIGVIKEDKINKVMEIAEPVGLLMGIVPSTNPTSTTIYKSLIAIKARNGIVFSPHPSALKCTLEAAKLMNDAAVAAGAPANIIGCISKPSMNATNELMKCDEVAMIIATGGSAMVKAAYSAGKPALGVGPGNVPAYIERTADIPKAVRNIIASKTFDNGTICASEQSVVVEECIRNQVMEEFKRQGGYFMTPEETEQVGRKLFNRGHAMNAKMVGRSAADIAAGAGISIPPGTKVLLGEQQGVGEQYPLSYEKLTTVLAFYTVKDWHEACDLCMKLLNNGGVGHSLSIHTENPEMAIKFAEKPVFRILVNTASTHGGVGVSTGLAPAFTLGCGTWGGSATSDNVTPMHLINIKRVAYGIKDVTENGNSSYATGDAQQGGSGGTVSEDRIQALVNEVMSLLKQRGDC,not soluble
7,MSEVEKTYCGFIAIVGRPNVGKSTLLNELLGQKISITSRKPQTTRHRIMGIHTEGPYQAIYVDTPGLHIEEKRAINRLMNRAASSSLGDVELVIFVVEGTHWTADDEMVVNKLRSLQCPVLLAINKVDNVTDKTKLLPHMQFLSQQMNFLDVVPISAEKGMNVDTIASIVRKHMPEAEHHFPEDYITDRSQRFMASEIIREKLMRFLGEELPYSVTVEIEQFVPNERGGYNIHGLILVEREGQKKMVIGNKGSKIKVIGTEARQDMERMFEAKVHLELWVKVKSGWADDERALRSLGYTDDLK,not soluble
8,MRVFKTKLIRLQLTAEELDALTADFISYKRDGVLPDIFGRDALYDDSFTWPLIKFERVAHIHLANENNPFPPQLRQFSRTNDEAHLVYCQGAFDEQAWLLIAILKPEPHKLARDNNQMHKIGKMAEAFRMRF,soluble
9,MSSNHPLDQLYRQVIMDHYKNPRNRGVLEGTNVDVNMNNPTCGDRIHLTMKVEDGKVADVKFEGEGCSISMSSASMMTQAIKGKTVEEALRLAHIFSDMIQGKEYDDSVDLGDIEALQGVSKFPARIKCATLAWKALEKGLHNHEHEGR,not soluble
10,MLHFYQAVAQLMEHIRGAKAHDVRFTQPLADKPPFALIDWLDAQPIFPKFYWQSRDTREEVVALGQVYTFTDPAPAYAILGDEQRVWGGRSFDGHTAKNPRCMSSFFFLPQIELIRRDEQWLLAVNINNEPQRTLTALQKLLVEVPTLRSMTAHVTRVEHTPTAANWHDLVEKVLAGITEKQFKKVVLARKTTLTLDAPLSAAQLLKASHAQNHHSFHFLLALDSRHSFMGSTPERLYLRHGQNLETEALAGTIGRGANATQDMELAHWLTHDSKNLNENQLVVEDIIESLAPHAEQIHTQREAQLVRLRKVQHLKKRIDAQLKSGVNGVQLLGVLQPTAAVAGLPRQAALAFIAENEPFARGWYAGSMGYFSHAQAEFCVAIRSALVVDKQVQLYAGAGIVPGSIAEHEWQELDKKLSTLLSLITDRLPLGVAS,not soluble
11,MSLHKRMKKKLILAAAGAMAVFSLAACSSGSKDIATMKGSTITVDDFYNQIKEQSTSQQAFSQMVIYKVFEEKYGDKVTDKDIQKNFDEAKEQVEAQGGKFSDALKQAGLTEKTFKKQLKQRAAYDAGLKAHLKITDEDLKTAWASFHPEVEAQIIQVASEDDAKAVKKEITDGGDFTKIAKEKSTDTATKKDGGKIKFDSQATTVPAEVKEAAFKLKDGEVSEPIAATNMQTYQTTYYVVKMTKNKAKGNDMKPYEKEIKKIAEETKLADQTFVSKVISDELKAANVKIKDDAFKNALAGYMQTESSSASSEKKESKSSDSKTSDTKTSDSEKATDSSSKTTESSSKEGGSHHHHHH,soluble
12,SNASAFTEGTDYMVLEKPIPNADKTLIKVFSYACPFCYKYDKAVTGPVSDKVADLVTFTPFHLETKGEYGKQASEVFAVLIAKDKAAGISLFDAKSQFKKAKFAWYAAYHDKKERWSDGKDPAAFIKTGLDAAGMSQADFEAALKDPAVQETLEKWKAAYDVAKIQGVPAYVVNGKYLIYTKNIKSIDSMAELVRELATKK,soluble
13,MNFFKRKFSFSEDEGEPMDDVNSGPPSSFSFQSIANKVSNTISAPTSPAKSRESLAAALERSLNHDRSRGEPLMKDAKVLLVIDSHHVDWSKYFRNHTEYAIRVEQGDIDELDVMCTEKNCTVELNTPGKDVRTFTPSAVFLGAGATRCAQLKTITRAFIAAHIPFLNSHTSAVAFLDRNNLKKQLKKITLSDGASIPMLPIVHYPHFHKFHQSQSSTYPMVVSVNEGFQGIGKIKVNNHEELCDVEGMLQIMSKGDTEVEVQPFVDAKYDLHIQKIGHEYKTFIRRGICKHWKSNVGSSVLEQISTCERHKKYLKAITDHVGPMHICSIDILVSKEGREFVHDVNDVIAYFGESAEDDRRAASLLLRALVAPRITSPIAAEPPATSPTTSAVTNGHGNHGPAPAVPTRRLPPHPSSSSAAPPRGHMSDKVESRHKDHYDPPPQIPRTGSRESVSYVDDTMGQLKRTFAGFFGE,not soluble
14,MVLGKPQTDPTLEWFLSHCHIHKYPSKSTLIHQGEKAETLYYIVKGSVAVLIKDEEGKEMILSYLNQGDFIGELGLFEEGQERSAWVRAKTACEVAEISYKKFRQLIQVNPDILMRLSAQMARRLQVTSEKVGNLAFLLVTGRIAQTLLNLAKQPDAMTHPDGMQIKITRQEIGQIVGCSRETVGRILKMLEDQNLISAHGKTIVVYGTR,soluble
15,MGSDKIHHHHHHMAKTNPGRFFEDYTVGQTLHHAVPRTVTNGERALYHALYPARHALYSSDAFAQSCGLPGSPIDDLAAFHVVFGKTVPDVSLNAVANLGYAEGRWLKPVYAGDTLRSVSEVIGLKQNSNGKTGVVYVRTRGLNQRDETVMEYVRWVMVRKRDLDAPAPEIVVPELKKALAPNDLVVPEGLDFTAYDFALAGEPHRWGDYAVGETIDHVDGVTVEEAEHMLATRLWQNTAKVHFDLTFRPDGRLIYGGHVISMARALSFNGLANAQIIVGLNGGAHANPCFAGDTIKAWTEVLDKAETAAPGVGALRLRLVATKGGAPFALHGEDGKYLPEVLLDLDYWVLMPK,not soluble
16,MLGFNGERLDPASGAFHLGNGYRAYSPALMRFHCPDSLSPFGASGVNPYAYCAGDPANRADPSGHLSWQAWTGIGLAVASLALAAFTAGTSIIASGGIVAALESASAITLAEGGLAVVSDMTAIACGAMEASDPQAAAALSWVSLACGAMGMVHAGYGAVRGIDRKLGAFLQENSRFLGKITRGERDSLGIPLGGGLTKCFRPASEMEGASAGIALGRLHRSSSTPDMEAFLALPAAKRKRIGSGVSGVVYEAGRGWVVKIAIDPLPIETMEREAEIFRAVHGPRSALVAENMLWMKRIPGVPVNTLNLLADEKAEMWQKTLAEVKRLQEMGIHHGDPSWNNLLFDQQTGTVSFIDFGKSRYLDGFAPATLEHHHHHH,soluble
17,QGKTTVTAALARLHARQGRRVRVFKCGPDFLDPMILARASGAPVYQLDLWMVGEAEARRLLARAAGEADLILIEGVMGLFDGNPSAADLARRFGVPVLGVINGAAMAQTFGALAYGLAHFQPDLPFSGVLGNRVGSQRHSDILRDCLPPGMRWFGGLPRSAEFELPSRHLGLVQAEELADLDARLDAAADALRASAETDLPEPVTFEVPAPAPLQRSLEGVRIGVARDASFAFLYQANLDLLRELGAELAFFSPLQDQALPAVDSLYLPGGYPELHLGRLQGNRAMAEAIRAHHAAGKPLLAECGGMLYLLDCLEDADGERGELLGLLPGRARLQKRLTALALQEVELPEGRLRGHTFHHSTLDCAVEPLARGVCPNGRNTAEAVFRLGRLTASYIHFYLPSNPQAAAALLAPARDA,not soluble
18,MSLDEKLRTSGVQVIGDIAWGTHFCQFYRTQEELVNVVCPYLKAGLEGNELCIWALPRDFETKKEAEGPLRRTIPKLDIYLEKGQMEIISYKDRYAEKEIPDSKKALENLIKKADYALLNGYSGLRLVQDTSWLKNDWKNLTGYEEELDIAIENRRITALCTYSSGKFDTDETIYAALSHRFVLVKKEGNWEKVENPRLKKAEERVIQPSEEVETKTEEENENLKKLLEERTVELTEAYKSLKVNEKQFLQIRKMTHIGNWKWDILTGELHWSDEVYRIFGRDPERFKATCDAFLGSVHPDDREYLINSIKKDFDEQIRNIDYRIVLPDGEERTVRTRVEITFDEEGHHHHHH,not soluble
